# Legend:
# [1] = target: Plasmodium falciparum lactate dehydrogenase (PfLDH) (Plasmodium falciparum, UniProt Q76NM3 1-316); test: ELASA sandwich
# [2] = target: human lactate dehydrogenase (hLDH) (human, UniProt P00338 1-332); test: ELASA sandwich
binder,measurement,setting,value
"CTGGGCGGTAGAACCATAGTGACCCAGCCGTCTAC (ssDNA) [2008s aptamer, 3'-biotin]",binding result,[1],binds
same,binding result,[2],no binding

# — paper PMC9562052
